From patent US20250152746A1, “BASE EDITING OF ANGPTL3 AND METHODS OF USING SAME FOR TREATMENT OF DISEASE” (Verve Therapeutics, Inc., priority 2020, published 2025)
In the oligonucleotide strings, read from the 5' end, every base follows the letter of its sugar. An asterisk marks phosphorothioate; unmarked linkages are phosphodiester. Other units and linkages are bracketed, terminal groups are in braces. A string of capitals states the bases alone. m = 2'-O-methyl; r = 2'-OH (RNA)

B1: GA404 (nucleic acid)
guide: mU*mC*mA*rGrCrUrCrCrArGrGrCrGrGrUrCrCrUrGrGmGrUrUrUrUrArGmAmGmCmUmArGmAmAmAmUmAmGmCmAmArGrUrUmArAmArAmUrAmAmGmGmCmUmArGrUmCmCrGrUrU*rAmUmCrArAmCmUmUrGmAmAmAmAmAmGmUmGrGmCmAmCmCmGmAmGmUmCmGmGmUmGmCmU*mU*mU*mUmUrUmU
B2: GA226: PCSK9 gRNA; protospacer GGCTTTTCCGAATAAACTCC (SEQ ID NO: 220) (nucleic acid)
guide: GGCUUUUCCGAAUAAACUCCGUUUUAGAGCUAGAAAUAGCAAGUUAAAAUAAGGCUAGUCCGUUAUCAACUUGAAAAAGUGGCACCGAGUCGGUGCUUUU
modifications: sugars from the 5' end m3 r94 m3, linkages s3 o93 s3 (s phosphorothioate, o phosphodiester), T or U not given here
B3: GA408 (nucleic acid)
guide: mU*mC*mA*rGrCrUrCrCrArGrGrCrGrGrUrCrCrUrGrGmGrUrUrUrUrArGmAmGmCmUmAmGmAmAmAmUmAmGmCmAmArGrUrUmArAmArAmUrAmAmGmGmCmUmArGrUmCmCrGrUrUrAmUmCrArAmCmUmUmGmAmAmAmAmAmGmUmGrGmCmAmCmCmGmAmGmUmCmGmGmUmGmCmU*mU*mU*mUmUrUmU
B4: GA401 (nucleic acid)
guide: mU*mC*mA*rGrCrUrCrCrArGrGrCrGrGrUrCrCrUrGrGmGrUrUrUrUrArGmAmGmCmUmAmGmAmAmAmUmAmGmCmAmArGrUrUmArAmArAmUrAmAmGmGmCmUmArGrUmCmCrGrUrUrAmUmCrArAmCmUmUmGmAmAmAmAmAmGmUmGrGmCmAmCmCmGmAmGmUmCmGmGmUmGmCmU*mU*mU*mUmUmUmU
B5: GA406 (nucleic acid)
guide: TCAGCTCCAGGCGGTCCTGGGTTTTAGAGCTAGAAATAGCAAGTTAAAATAAGGCTAGTCCGTTATCAACTTGAAAAAGTGGCACCGAGTCGGTGCTTTTTTT
modifications: listed as RNA; modified_base 1: mod_base = OTHER; note = 2'-O-Methyl-uridine phosphorothioate; modified_base 2: mod_base = OTHER; note = 2'-O-Methyl-cytidine phosphorothioate; modified_base 3: mod_base = OTHER; note = 2'-O-Methyl-adenosine phosphorothioate;
B6: GA402 (nucleic acid)
guide: mU*mC*mA*rGrCrUrCrCrArGrGrCrGrGrUrCrCrUrGrGmGrUrUrUrUrArGmAmGmCmUmArGmAmAmAmUmAmGmCmAmArGrUrUmArAmArAmUrAmAmGmGmCmUmArGrUmCmCrGrUrUrAmUmCrArAmCmUmUrGmAmAmAmAmAmGmUmGrGmCmAmCmCmGmAmGmUmCmGmGmUmGmCmU*mU*mU*mUmUrUmU
B7: GA403 (nucleic acid)
guide: mU*mC*mA*rGrCrUrCrCrArGrGrCrGrGrUrCrCrUrGrGmGrUrUrUrUrArGmAmGmCmUmArGmAmAmAmUmAmGmCmAmArGrUrU*mArAmArAmUrAmAmGmGmCmUmArGrUmCmCrGrUrUrAmUmCrArAmCmUmUrGmAmAmAmAmAmGmUmGrGmCmAmCmCmGmAmGmUmCmGmGmUmGmCmU*mU*mU*mUmUrUmU
B8: GA008: structure-guided 2′-OMe heavy guide RNA (gRNA) design, PCSK9 (nucleic acid)
guide: mG*mG*mU*rGrCrUrArGrCrCrUrUrGrCrGrUrUrCrCrGmGrUrUrUrUrArGmAmGmCmUmAmGmAmAmAmUmAmGmCmAmArGrUrU*mArAmArAmUrAmAmGmGmCmUmArGrUmCmCrGrUrU*rAmUmCrArAmCmUmUmGmAmAmAmAmAmGmUmGrGmCmAmCmCmGmAmGmUmCmGmGmUmGmCmU*mU*mU*mU
B9: GA007: structure-guided 2′-OMe heavy guide RNA (gRNA) design, PCSK9 (nucleic acid)
guide: mG*mG*mU*rGrCrUrArGrCrCrUrUrGrCrGrUrUrCrCrGmGrUrUrUrUrArGmAmGmCmUmAmGmAmAmAmUmAmGmCmAmArGrUrUmArAmArAmUrAmAmGmGmCmUmArGrUmCmCrGrUrUrAmUmCrArAmCmUmUmGmAmAmAmAmAmGmUmGrGmCmAmCmCmGmAmGmUmCmGmGmUmGmCmU*mU*mU*mU

Legend:
PCSK9 gene [1] = test: PCSK9 gRNA/SpCas9 editing in primary cynomolgus hepatocytes (Tables 2, 22); assay type: cell-based, cynomolgus monkey
Experimental: (§1) In set of experiments, PCSK9 gRNAs were co-transfected with an equivalent amount (1:1 ratio by weight) of in vitro transcribed commercially available SpCas9 mRNA MS002 purchased from TriLink Biotechnologies into primary human hepatocytes at 2500, 500, or 100 ng/RNA/mL and processed as described in detailed methods. Extracted genomic DNA was analyzed for gene editing at the target site with next-generation sequencing of PCR amplicons generated around the target sites. Samples were prepared using the Nextera XT DNA library preparation kit (Illumina) according to the manufacturer's protocol. Briefly, two rounds of PCR were performed first to amplify the region of interest and second to add DNA sequences required for next generation sequencing and sample identification to the initial product. The final amplicon was sequenced on the Illumina MiSeq instrument according to the manufacturer's protocol. A wide range of editing activities (Table 2) were observed. In a second set of experiments, ANGPTL3 gRNAs were co-transfected with an equivalent amount of in vitro transcribed SpCas9 mRNA (1:1 ratio by weight) into primary human hepatocytes and processed and analyzed similarly (Table 3).
[…] Genomic DNA was processed, sequenced, and analyzed as described in the detailed methods section. GA266 was transfected independently twice to serve as two positive controls.
(§2) Plating, culturing, and transfection of primary hepatocytes. Primary human liver hepatocytes (PHH) and primary cynomolgus liver hepatocytes (PCH) from BioIVT were cultured per the manufacturer's protocol. Briefly, primary human hepatocytes and primary cyno hepatocytes were obtained as frozen aliquots from BioIVT. Four lots of primary human hepatocytes, each derived from a de-identified individual donor, were used for the experiments: STL (main donor) was used for all experiments, including screening experiments and off-target experiments; HLY, JLP, and TLY were used for off-target experiments. The HFG lot of primary cyno hepatocytes were used for experiments. Following the manufacturer's instructions, cells were thawed and rinsed prior to plating in 24-well plates that had been coated with bovine collagen overnight, with a density of approximate 350,000 cells/well in INVITROGRO hepatocyte medium supplemented with TORPEDO antibiotic mix (BioIVT). The cells were thawed and resuspended in hepatocyte thawing medium followed by centrifugation at 100 g for 10 min at 4° C. The supernatant was discarded, and the pelleted cells resuspended in hepatocyte plating medium. Each vial contains approximately 5 million cells that were used for plating one 24-well plate. Plated cells were allowed to settle and adhere for 4-6 h in a tissue culture incubator at 37° C. under 5% CO2 atmosphere. After incubation, cells were checked for monolayer formation. The incubating media were then replaced with fresh hepatocyte maintenance media (complete INVITROGRO medium obtained from BioIVT, the cell line provider). The cells thus became ready for transfection. Each of the gRNAs were co-transfected with an equivalent amount of in vitro transcribed ABE8.8 mRNA (1:1 ratio by molecular weight) into primary human hepatocytes via MessengerMax reagent (Lipofectamine), using various dilutions to assess for editing activity at different concentrations of test article. MessengerMAX from Thermo Fisher is used for transfection. Solution A: desired amount of guide RNA is mixed with 1:1 wt ratio of mRNA in OptiMEM. Solution B: MessengerMAX in OptiMEM. After mixing solutions A and B, the mixture was incubated at room temperature for 20 min. 60 μL of the incubated solution was added dropwise to each cell wells. For protospacer sequences that were a perfect match to the corresponding cynomolgous monkey PCSK9 or ANGPTL3 gene sequence, each gRNA was also co-transfected with an equivalent amount of ABE8.8 mRNA (1:1 ratio by molecular weight) into primary cynomolgous hepatocytes, and followed the same transfection protocol. […]

PCSK9 gene [2] = test: PCSK9 gRNA/SpCas9 editing in primary human hepatocytes (Tables 2, 4); assay type: cell-based; settings: for editing compared with minimally modified control gRNA GA009: SpCas9 mRNA MS002; for % Editing, day 3 / % Editing, day 5: modified gRNA; for % Editing, day 3: day 3 post transfection; for % Editing, day 5: day 5 post transfection
Experimental: as §1
PCSK9 gRNAs were co-transfected with an equivalent amount of in vitro transcribed SpCas9 mRNA MS002 (1:1 ratio by weight) into primary human hepatocytes and processed as described in detailed methods. A wide range of editing activities were observed (Table 4; ND=Not determined). The guides with the highest editing activity at five days post transfection were GA001, GA002, GA007, and GA008.
Human primary hepatocytes were transfected at 2500, 1250, 500, and 250 ng/test article/mL with SpCas9 mRNA MS002 and a gRNA targeting PCSK9 with modifications to the tracr. Genomic DNA was processed, sequenced, and analyzed as described in the detailed methods section. GA156 was transfected to serve as a positive control.
as §2, with “transfection.” for “transfection. Solution A: desired amount of guide RNA is mixed with 1:1 wt ratio of mRNA in OptiMEM. Solution B: MessengerMAX in OptiMEM. After mixing solutions A and B, the mixture was incubated at room temperature for 20 min. 60 μL of the incubated solution was added dropwise to each cell wells. For protospacer sequences that were a perfect match to the corresponding cynomolgous monkey PCSK9 or ANGPTL3 gene sequence, each gRNA was also co-transfected with an equivalent amount of ABE8.8 mRNA (1:1 ratio by molecular weight) into primary cynomolgous hepatocytes, and followed the same transfection protocol.”

[3] = SpCas9 mRNA MS002, 625 ng/test article/mL, rep1
[4] = SpCas9 mRNA MS002, 625 ng/test article/mL, rep2
[5] = SpCas9 mRNA MS002, 1250 ng/test article/mL, rep1
[6] = SpCas9 mRNA MS002, 1250 ng/test article/mL, rep2
[7] = SpCas9 mRNA MS002, 2500 ng/test article/mL, rep1
[8] = SpCas9 mRNA MS002, 2500 ng/test article/mL, rep2
[9] = SpCas9 mRNA MS002 1:1 by weight

Molecule	Cynomolgus Primary Hepatocytes-% Editing (PCSK9 gene [1]; [3]) [%]	Cynomolgus Primary Hepatocytes-% Editing (PCSK9 gene [1]; [4]) [%]	Cynomolgus Primary Hepatocytes-% Editing (PCSK9 gene [1]; [5]) [%]	Cynomolgus Primary Hepatocytes-% Editing (PCSK9 gene [1]; [6]) [%]	Cynomolgus Primary Hepatocytes-% Editing (PCSK9 gene [1]; [7]) [%]	Cynomolgus Primary Hepatocytes-% Editing (PCSK9 gene [1]; [8]) [%]	Human Primary Hepatocyte Editing % 100 (PCSK9 gene [2]; 100 ng/RNA/mL, SpCas9 mRNA MS002 1:1 by weight) [%]	Human Primary Hepatocyte Editing % 500 (PCSK9 gene [2]; 500 ng/RNA/mL, SpCas9 mRNA MS002 1:1 by weight) [%]	Human Primary Hepatocyte Editing % 2500 (PCSK9 gene [2]; 2500 ng/RNA/mL, SpCas9 mRNA MS002 1:1 by weight) [%]	editing compared with minimally modified control gRNA GA009 (PCSK9 gene [2])	% Editing, day 3 (PCSK9 gene [2]; [9]) [%]	% Editing, day 5 (PCSK9 gene [2]; [9]) [%]
B1	31.63	30.16	41.68	35.04	48.3	50.59						
B2							0.4	2.99	7.61			
B3	36.7	37.14	47.21	49.8	50.4	46.92						
B4	38.33	38.77	49.12	48.83	53.74	52.79						
B5	37.58	40.31	45.11	43.68	57.17	51.45						
B6	35.05	40.31	44.46	47.93	45.58	55.34						
B7	38.28	35.58	50.5	47.13	52.62	55.84						
B8										improved editing	20	28
B9										improved editing	30	27
